B1: GST-DDR1b CKD: fused protein of the GST and the human DDR1b cytosolic tyrosine kinase domain, control (protein)
chain: VLEEELTVHLSVPGDTILINNRPGPREPPPYQEPRPRGNPPHSAPCVPNGSALLLSNPAYRLLLATYARPPRGPGPPTPAWAKPTNTQAYSGDYMEPEKPGAPLLPPPPQNSVPHYAEADIVTLQGVTGGNTYAVPALPPGAVGDGPPRVDFPRSRLRFKEKLGEGQFGEVHLCEVDSPQDLVSLDFPLNVRKGHPLLVAVKILRPDATKNARNDFLKEVKIMSRLKDPNIIRLLGVCVQDDPLCMITDYMENGDLNQFLSAHQLEDKAAEGAPGDGQAAQGPTISYPMLLHVAAQIASGMRYLATLNFVHRDLATRNCLVGENFTIKIADFGMSRNLYAGDYYRVQGRAVLPIRWMAWECILMGKFTTASDVWAFGVTLWEVLMLCRAQPFGQLTDEQVIENAGEFFRDQGRQVYLSRPPACPQGLYELMLRCWSRESEQRPPFSQLHRFLAEDALNTV
modifications: left off: a dimerising Fc or GST
notes: fused protein of the GST and the human DDR1b cytosolic tyrosine kinase domain, control
B2: GST-Akt1: fused protein of the GST and the full-length mouse Akt1 kinase, control (protein)
chain: MNDVAIVKEGWLHKRGEYIKTWRPRYFLLKNDGTFIGYKERPQDVDQRESPLNNFSVAQCQLMKTERPRPNTFIIRCLQWTTVIERTFHVETPEEREEWATAIQTVADGLKRQEEETMDFRSGSPSDNSGAEEMEVSLAKPKHRVTMNEFEYLKLLGKGTFGKVILVKEKATGRYYAMKILKKEVIVAKDEVAHTLTENRVLQNSRHPFLTALKYSFQTHDRLCFVMEYANGGELFFHLSRERVFSEDRARFYGAEIVSALDYLHSEKNVVYRDLKLENLMLDKDGHIKITDFGLCKEGIKDGATMKTFCGTPEYLAPEVLEDNDYGRAVDWWGLGVVMYEMMCGRLPFYNQDHEKLFELILMEEIRFPRTLGPEAKSLLSGLLKKDPTQRLGGGSEDAKEIMQHRFFANIVWQDVYEKKLSPPFKPQVTSETDTRYFDEEFTAQMITITPPDQDDSMECVDSERRPHFPQFSYSASGTA
modifications: left off: a dimerising Fc or GST
notes: fused protein of the GST and the full-length mouse Akt1 kinase, control
B3: GST-CDK4: fused protein of the GST and the full-length human CDK4 kinase, control (protein)
chain: MATSRYEPVAEIGVGAYGTVYKARDPHSGHFVALKSVRVPNGGGGGGGLPISTVREVALLRRLEAFEHPNVVRLMDVCATSRTDREIKVTLVFEHVDQDLRTYLDKAPPPGLPAETIKDLMRQFLRGLDFLHANCIVHRDLKPENILVTSGGTVKLADFGLARIYSYQMALTPVVVTLWYRAPEVLLQSTYATPVDMWSVGCIFAEMFRRKPLFCGNSEADQLGKIFDLIGLPPEDDWPRDVSLPRGAFPPRGPRPVQSVVPEMEESGAQLLLEMLTFNPHKRISAFRALQHSYLHKDEGNPE
modifications: left off: a dimerising Fc or GST
notes: fused protein of the GST and the full-length human CDK4 kinase, control

Legend:
c-Src tyrosine kinase = biological target: T1, c-Src tyrosine kinase (Mus musculus, UniProt P05480, P80A); test: tyrosine phosphorylation on co-expression with c-Src in insect cells, western blotting with phosphorylated tyrosine specific antibody; format: cell-based, Spodoptera frugiperda; conditions: glutathione bead purified, FIG. 2, FIG. 4
T1 construct: Full length human c-Src gene was per amplified from the vector of pUSE human O-Src wild (Upstate Biotechnology); host or cells: sf9 insect cells co-infected with two recombinant baculoviruses
Description: The results shown in FIG. 4 were obtained by co-expressing a fused protein GST-DDR2 CKD, a fused protein (GST-DDR1b CKD) of the GST and the human DDR1b cytosolic tyrosine kinase domain, a fused protein (GST-Akt1) of the GST and the full-length mouse Akt1 kinase and a fused protein (GST-CDK4) of the GST and the full-length human CDK4 kinase with the c-Src protein without GST tagging in insect cells, respectively; purifying the respective expressed product using glutathione beads; performing SDS-PAGE; and performing the western blotting test using a phosphorylated tyrosine specific antibody and coomassie staining.
The results shown in FIG. 4 have been obtained by co-expressing the full-length c-Src protein together with the fused proteins, GST-DDR2 CKD, GST-DDR1b CKD, GST-Akt1 and GST-CDK4, respectively; in sf9 cells, then performing a western blotting test on each purified GST tagged protein using a phosphorylated tyrosine specific antibody. The presence of a similar amount of each purified GST tagged protein was shown by CBB staining.
GST tagged kinase defective DDR2 cytosolic domain (GST-kd-DDR2-CKD) with intact three tyrosines in the activation loop or with various phenylalanine mutations described in the text were co-expressed with Src in sf9 cells. GST tagged proteins were purified and the same amount of proteins estimated by CBB staining was used for western blotting using P-tyro antibody.
Phospho-tyrosine specific antibody was purchased from Cell Signaling Inc, USA. Specific antibodies to human c-Src, human c-Fyn, and she were obtained from SantaCruz, USA. Samples were boiled for 2 min in 1× lameli sample buffer, and loaded in 10% SDS-PAGE. Proteins were transferred to Immobilon-P membrane (Millipore) and blacked by 10% skim milk in TBS for an hour. The membrane was immunoblotted with antibodies for 2 hours and subsequently washed with 1×TBS five times. Then it was incubated with HRP conjugated secondary antibodies for an hour and protein bands were detected using chemiluminescence kit (Amersham).

sf9 cells = test: tyrosine phosphorylation by H2O2 processing of expressing insect cells, western blotting with phosphorylated tyrosine specific antibody; format: cell-based, Spodoptera frugoperda; conditions: 200 μM H2O2 for half of an hour; FIG. 2, FIG. 5
Procedure: The results shown in FIG. 5 were obtained by solely expressing the fused proteins, GST-DDR2 CKD, the GST-DDR1b CKD, the GST-CDK4 and the GST-CDK1, respectively, in insect cells; processing with 200 μM of H2O2 for half of an hour; purifying the respective expressed product using glutathione beads; performing the SDS-PAGE; and performing the western blotting test using an phosphorylated tyrosine specific antibody and coomassie staining.
The results shown in FIG. 5 have been obtained by solely expressing GST-DDR2 CKD, GST-DDR1b CKD, GST-CDK4 and GST-CDK1, respectively in sf9 cells; processing each expressed cells with H2O2 of 200 uM for half of an hour or not; and then purifying the GST tagged protein followed by a western blotting using a phosphorylated tyrosine specific antibody. The presence of a similar amount of each purified GST tagged protein was shown by CBB staining.
The recombinant baculoviruses having the GST-DDR2 CKD coding gene were transfected into sf9 insect cells, by setting MOU to 10 and the cells were cultured for 24 to 72 hours, to express the protein. […], at the concentration of 200 μM was added to the cultured cells. The cells were left for half of an hour, and collected. The collected cells were lysed and the GST-DDR2 CKD was purified from the expressed products, using the glutathione agarose bead column chromatography. The purified protein was subjected to an electrophoresis in 10% polyacrylamaid gel.
After completing the electrophoresis, the protein developed in the gel was transferred to nitrocellulose, and then subjected to a western blotting using a phosphorylated tyrosine specific antibody (Cell signaling Inc, USA), to measure the chemiluminescence signal using x-ray film. For the control, the chemical luminescence of the case without H2O2 processing was measured by the method as mentioned above.

Row | Molecule | tyrosine phosphorylation induced by co-expression with c-Src (c-Src tyrosine kinase) | tyrosine phosphorylation induced by H2O2 processing (sf9 cells)
1 | B1 | poorly induced or never induced | poorly induced or never induced
2 | B2 | poorly induced or never induced | –
3 | B3 | poorly induced or never induced | poorly induced or never induced

Reference: US20120270234A1, “DDR2 PROTEIN WITH ACTIVATED KINASE ACTIVITY AND PREPARATION METHOD THEREOF” (KOREA INSTITUTE OF SCIENCE AND TECHNOLOGY, priority 2003, published 2012)
